Details: 37° C., 5% CO2, up to 4 days of incubation
Procedure: The mixture was incubated in a 5% CO2, 37° C. environment. At different time points, 100-μL aliquots (in triplicate) were removed and treated with 200 μL of EtOH to precipitate serum proteins. Samples were then centrifuged for 15 min at 500 rpm. […] The supernatant was analyzed with HPLC (eluents: A=0.1% trifluoroacetic acid in water and B=acetonitrile; gradient: 0 min 95% of A; 20 minutes 50% of A) to determine the stability of the peptide in serum.

With `CC(C)C[C@H](NC(=O)C[C@H](O)[C@H](CC(C)C)NC(=O)[C@H](Cc1c[nH]cn1)NC(=O)CNC(=O)[C@@H](NC(=O)[C@H](C)NC(=O)[C@H](Cc1c[nH]c2ccccc12)NC(=O)[C@H](CCC(N)=O)NC(=O)[C@@H](Cc1ccccc1)NC(=O)CN1CCC(NC(=O)CN2CCN(CC(=O)O)CCN(CC(=O)O)CCN(CC(=O)O)CC2)CC1)C(C)C)C(N)=O` [compound 2, [^177Lu]-DOTA-4-amino-1-carboxymethylpiperidine-D-Phe-Gln-Trp-Ala-Val-Gly-His-Sta-Leu-NH2, metal not drawn] the “stability in human serum” value was “remarkable stability”.

Source: patent US20140023585A1, “177 LUTETIUM-LABELED BOMBESIN ANALOGS FOR RADIOTHERAPY” (UNIVERSITATSSPITAL BASEL, priority 2010, published 2014)
